The values below come from publication PMC9859758.

Experiment [1] addresses His-tagged Naumovozyma castellii Kar9 N-terminal domain (NcKar9N, residues 1-410), wild type (Naumovozyma castellii). Nature of the experiment: SEC-MALS; 20 mM Tris-HCl pH 7.5, 150 mM NaCl, 1 mM dithiothreitol; S-200 10/300 column; 30 μl of 200 μM protein injected. (SEC sorts molecules by how far they enter the pores of the column.)
Experiment [2] deals with His-tagged NcKar9N-β^− (Arg233Ala/Ile237Ala) (Naumovozyma castellii). Nature of the experiment: SEC-MALS; 20 mM Tris-HCl pH 7.5, 50 mM NaCl, 1 mM dithiothreitol; S-200 10/300 column; 30 μl of 200 μM protein injected.
Experiment [3] shares this target. In words: SEC-MALS; 20 mM Tris-HCl pH 7.5, 150 mM NaCl, 1 mM dithiothreitol; S-200 10/300 column; 30 μl of 200 μM protein injected.
Experiment [4] has as its target His-tagged NcKar9N-γ^− (Tyr363Ala/Arg364Ala) (Naumovozyma castellii). In words: SEC-MALS; 20 mM Tris-HCl pH 7.5, 50 mM NaCl, 1 mM dithiothreitol; S-200 10/300 column; 30 μl of 200 μM protein injected.

For orientation: stoichiometry N means a count of units in the complex or per binding partner. In the case of “His-tagged Naumovozyma castellii Kar9 N-terminal domain (NcKar9N, residues 1-410), wild type (domain or fragment)”, in experiment [1], the stoichiometry N came to 2. For the substance “His-tagged NcKar9N-β^− (Arg233Ala/Ile237Ala) (domain or fragment)”, the stoichiometry N in experiment [2] and in experiment [3] was 2 each time. Regarding “His-tagged NcKar9N-γ^− (Tyr363Ala/Arg364Ala) (domain or fragment)”, in experiment [4], the stoichiometry N is below 4.
